{
  "source": "patent US5645817",
  "about": "“Granulocyte-binding antibody constructs, their preparation and use” (Behringwerke Aktiengesellschaft, dated 1997)",
  "binders": {"B1": {"name": "hum 250/183 (second version of the humanized Mab BW 250/183) (antibody, V domains shown)", "VH": "QVQLQESGPGLVRPSQTLSLTCTVSGFSDYYMNWVRQPPGRGLEWIGFISNKPNGHTTEYSASVKGRVTMLRDTSKNQFSLRLSSVTAADTAVYYCARDKGIRWYFDVWGQGSLVTVSS", "VL": "DIQMTQSPSSLSASVGDRVTITCRASSSVSYMHWYQQKPGKAPKPLIYATSNLASGVPSRFSGSGSGTDFTFTISSLQPEDIATYYCQQWSSNPLTFGQGTKVEIKR"}},
  "molecular_target": "carcinoembryonic antigen (CEA) (Homo sapiens (Human), UniProt P06731)",
  "assay": "characterisation according to Example 2 (ELISA on CEA); told in words",
  "procedure": "Supernatants from BHK cells, which had been transfected with the DNA constructs of the second version of the hum 250/183, were tested for their content of humMab and for the specificity of the humMab.\nHowever, the polystyrene plates were coated with 75 μl of CEA at a concentration of 15 μg/ml. Equal volumes of different concentrations (consecutively dilutions 1:2)",
  "data": [
    {"binder": "B1", "values": [
      {"measurement": "binding result", "value": "binds"}
    ]}
  ]
}
